Results published in the DeepSol protein solubility set.

Experiment: soluble on expression in E. coli; label from the status in PepcDB or PDB records

| Sequence | soluble on expression in E. coli |
| --- | --- |
| MGSDKIHHHHHHMRISYGVENLRSLTRTPEIELRPITILIGRNSAGKSTYLRSFALMRQSLEVKSSAPILWYGDYVDFGDFDAAVSNGDKDSDITFNFRVEDLDTRDVEDEIYYYNEYAYRSSRRKISYQAVSLSISLGEQLRRTVRRRIALEIPEDRISAVASFEKDGRECSDFQINGQRLSDLIPNVAVYFRASDIFDRPVLVRQVRKDGKSLRRVVGAASEIGSAISQRLRQQVDKRISEENLAIEARRILNHPRLDPTSLQQLRLRAGNRSFRKLYDRWLKDEASTTLAEIDHLCALNHALITVGRVSSVLKGFFRNTTYLGPARARSERYYRSQELEVSEISPDGQNLPMFLASLSTTEQGRFSDWVEEAFGFGVLVERKEGHVSIKLRQRTISVNVADTGYGVSQILPVLAQIWWATQIPRNYTRQMRHGLRPITMEQPELHLHPAHQAKLADVFQSAIERSNASGPEAVLLIETHSEALINRLGELIEYGKIAANDVQVVIFSARGEGEELNTEISTSTFDDNGALRDWPYGFFNY | not soluble |
| MGSDKIHHHHHHMRITIVTIFPEMVEVIKKYGVIARAVERGIVEINVENLRDYTTDRHRTVDDYQYGGGYGMVMKPEPFFRFYESYVEKYGKPYVILTSPQGRIFNYKIAEELSKKDDIVIFCGRYEGIDERVMSIVDDEISIGDYILTGGELPAMVITDAVVRLVPGVVERESVERESFHQGLLDHPVYTRPYEYKGMKVPDVLLSGDHEKVELWRRKESIKKTLAKRPDLFLAKELDEMDKLAIIELFRELMEKC | not soluble |
| MGSDKIHHHHHHMRIVLGVSSGIAIYKAVDLASKLRKEGHELHVVMTPDATRMISPVVFSAVGNCSVYHDWMDVRNGWIPHTEISRTADVLVVAPATANTISKIANGIADNLLTLVALAFDKDAKILVPTMNYRMYSNKLFQENLEKLKNNGWFVVEPEEGHLACGEVGKGRYPENEKIVEAVHLLTFPKKLAGKKVLITAGPTRERIDAVRFITNASSGKMGYALATVAKRMGARVSLVSGPTSLKPPYYVDEFVKVESAEEMYEEVMKRFEDTDIVIMNAAVGDYRPKKVFEGKLKKTENDLVLHLERTKDILKELGQRKSNQILVGFAAEVENFEENAVKKLREKNLDLLVLNDARKAFSSDRVEVYIYGRDGFIKRIDEDDKIRVACGILDVVSNLAGGSPS | not soluble |
| MGSDKIHHHHHHMRKINMMTTFECRVHTLEFDENYQPEMQSTRLTTNFANLARGENRKENLQNVIAMIDKRFNDLANWDNPTNDRYSVKLEIVSIDIDMEGKGKFFPALEWLKTYVIDHKTGKRIDGIVGNNFSSFVRDYDFSVLLLEHNRNKEEFTVPKGYGELHGKLFKYLLTSSAYKEKYSKPPVICLSVATTRTYRRTTNVHPILGVEYHQDNYSLTDEYFAKMGLSVRYFMPPKSVAPYAFYFDSNSDLLNDYTNLELISTIATMEAFQKIYRPEIYNANSVAGQVYKGSLTYQDYSVTKVEYDRVERTQLAIKQGKYTEAHFIKPYKAILDAWMAEK | not soluble |
| MGSDKIHHHHHHMRKLALPLVAFLTGGLAACSSSDVVESQGITVENCGSVVNFDSPPSHIALMKSAAVPTLDALGVLDRVVTKAGAFPAGYYDADLSERVTDIPTLSNKIDASGHVLISKEVVVAANPDIVFGETDTINRASMASSNIPVVEEPAFCGSIDGDVSFDDVWSQISTYGTIFDRSTEADAYIATLKERVSEVSSRVTDSGKTVAVLYPTIGGGVTYAYGRGSMANPLVAEAGLTNVFADQSERVFEVTAEELISRNPDYIIVLHSDGSPSDIVAEVGNLQGSSALTALSENKVLPILMNFAEPPTPLAVDGLEKIIDFVETHP | not soluble |
| MGSDKIHHHHHHMRLKVSFQAMESTVPLNYNYFLSSFIYKRLASQNENFARFLHEKGYGKRFKFFTFSQLFFENSRVSGERIFIFPGKGWWYISSPVVEFVRYMFSSLSEDPVIRVGKTEFIVKSIDIENSLPDQSEYHFVMLSPLVVSVPEENNGKLYHRYLHPGEEEFYEVFRKNLMKKYRAFYGKDPEGTVEVIPDWDYIKSRHRITKRIKLKNAFVRAVVFPFKIRGEKKLVEIGYEAGFGEKNSMGFGMVALKKYER | not soluble |
| MGSDKIHHHHHHMRLVLEEPFKRLWNGRDPFEAVEALQGKVYRELEGRRTLRTEVDGRGYFVKIHRGIGWGEIAKNLLTAKLPVLGARQEWQAIRRLHEAGVATMTAVAYGERGSDPARQHSFIVTEELAPTVDLEVFSQDWRERPPPPRLKRALVEAVARMVGDMHRAGVNHRDCYICHFLLHTDKPVSADDFRLSVIDLHRAQTRDATPKRWRNKDLAALYFSALDIGLTRRDKLRFLRTYFRRPLREILRDEAGLLAWMERKAEKLYERKQRYGDLL | not soluble |
| MGSDKIHHHHHHMRNPKPQEWKTEDYSQKKIADYKAFNFVDGEGVRNSLYVSGCLFACEGCFNKAVQNFNYGTPFTESLMNQIIEDLSHDYVQGLTLLGGEPFLNTDVCLSVVKRVRETFGSAKDIWSWSGYTFEELLLETPDKLELLHSIDILVDGRFELAKRNLNLQFRGSSNQRIIDVPKSLAAGKAVIWEKCHDAETSYEQIKKSI | not soluble |
| MGSDKIHHHHHHMRNRREVSKLLSERVLLLDGAYGTEFMKYGYDDLPEELNIKAPDVVLKVHRSYIESGSDVILTNTFGATRMKLRKHGLEDKLDPIVRNAVRIARRAAGEKLVFGDIGPTGELPYPLGSTLFEEFYENFRETVEIMVEEGVDGIIFETFSDILELKAAVLAAREVSRDVFLIAHMTFDEKGRSLTGTDPANFAITFDELDIDALGINCSLGPEEILPIFQELSQYTDKFLVVEPNAGKPIVENGKTVYPLKPHDFAVHIDSYYELGVNIFGGCCGTTPEHVKLFRKVLGNRKPLQRKKKRIFAVSSPSKLVTFDHFVVIGERINPAGRKKLWAEMQKGNEEIVIKEAKTQVEKGAEVLDVNFGIESQIDVRYVEKIVQTLPYVSNVPLSLDIQNVDLTERALRAYPGRSLFNSAKVDEEELEMKINLLKKYGGTLIVLLMGKDVPKSFEERKEYFEKALKILERHDFSDRVIFDPGVLPLGAEGKPVEVLKTIEFISSKGFNTTVGLSNLSFGLPDRSYYNTAFLVLGISKGLSSAIMNPLDETLMKTLNATLVILEKKELPRAEVKEEKLVEIILSGNRSELEKLVEDFLKEKDPLSVIEEHLRPAMERIGELYDKGKIFLPQLILAAQTVKPVFDKLTSMLPSDSQGETFVIATVKGDVHDIGKNIVASVIRSSGYRVVDLGKDVDTSEIVEAVEKERPVALGLSAMMTTTVGRIKEVVEKLKEKNLKIPVIVGGASLNEKLAKELGADYYAKNASEAVKILKSLGR | not soluble |
| MGSDKIHHHHHHMRTIDTIFSSEVNVPLYHYTGIGSLLGMANCKSVWASSISYMNDSKEIVHACETVENVLRARIVFGQKDEEHRFLEQLIEWTKSCSKVAHTMFVFSLSEKPSLLSQWRSYTPHGKGVSLEFSPNKVNEIARFTGMRIAKCVYDDREQEEIISILVEKLLVNFRQELPAMDITDKPPSQCYYDFINQYTSDIYQVLAIIKHGAFEEECEWRLISPHIPKFGDPRLKFREGASMLVPYIELPLGDKPFFRKIILGPSQHQNLNMSGLSMFMSNQGISNELLNCQIPYREW | not soluble |
| MGSDKIHHHHHHMRTRYVDIDDRMEDLADRLRGDPEIVQDFLARYELSWLYHENALEGVVYSSQELATALANAPLADVTFVSALQEIRNHKVALDLVREEAAAKKPKLNLTTVKKLYETLGHGIEGRSVAEYRKDMPLHRAYFHDIAQPPKIQPALQKLLEATEGADFRNAHPIQQACKLHHGFMQVFPFTENSGRVARLLANLVLLHAGYKLPVIVHATDRQRYYESLRLPDTILRDLTMEALDNALTQAEKYFAEAPRARKAAR | not soluble |
| MGSDKIHHHHHHMRTYTKEIQAIIDNVEKVIIGKENVITQSLAALLAGGHVLLEDVPGVGKTMLVRAFSRSIGLTFKRVQFTPDLLPSDLTGVSMYNQKTSQFEYRPGPLMGNIVLADEINRTSPKTQSALLEGMAEANVTVDGEIHTLPNPFFVMATQNPIEHEGTYPLPEAQLDRFLIKVKMGYPDFQQEMKLLTRFERDEPIETLESVITRDELLRMKEDVKAVHVSQPVKKYIVHLVQATRTHASLYLGASPRSSIALMKVAQAWAYMEGRSFVLPDDVKELLTPVLSHRLILTADARYHGQTAERILEQVKKEVAVPIQQDVESL | not soluble |
| MGSDKIHHHHHHMRVGATLARAIALKYNKKLVPVNHGIGHIEIGYLTTEARDPLILYLSGGNTIITTFYKGRFRVFGETLDIALGNMMDVFVREVSLAPPYIINGIHVIDICAEKGNKLLKLPYVVKGQDMSFSGLLTAALRVVGKEKLEDICYSVREIAFDMLLEATERALALTSKKELMIVGGVAASVSLRKKLEELGKEWNVQIKIVPPEFAGDNGAMIAYAGMLAASKGVFIDVDKSYIRPRWRVDEVDIPWRN | not soluble |
| MGSDKIHHHHHHMRVLFVAPNYYPHIGGVERHVREVSLELQKDGHSITILVPKHDSSYGDFEREGNIEVVRLNKPQTKLFTGLERVLQVAGVSGRFLKADIVNFHDVATMWRYGLWIYPILRVLGKKVYITFHGWEGHFPPKDKIVARRKLAARLADGTMCVGHFIEKWYGTRADVVTYGGVHRSSLPEAHENSVVFVGRLAKDSGIDSYLRAWEWIVRDHPELRLVICGDGAMKKELEDFVCHTGLRNVEFLGLVENPLPYVTDAKVVFTSGYLGILEAFSRKKPVVAVYDNELKKDYLEMMPDSRRLMWIARDSKEVARCVDEALLDREKTERAYRYSLENSWTKVKEDYYRLWNVDGEHGESHGGRGR | not soluble |
| MGSDKIHHHHHHMRYAFWNNKGGTGKTSLAFQSICRFAELNPHARILAIDVCPQANLSELMLGGLTNQGSARLMQRQGQVPRCSIGGYFQLRLPAPYTRPAFTASDFITTPNQYNPLIPGNIDLVCGDPLLELQANAVNTLANAQIPGTNTWIAVIDWISDFLESAEGYDYVFFDANPSFSIYTQIALSATNRVILPVMADDSSRRAIQNAFSLIYGLRLPSPIYATYNFATKLREAERPLPQVHLIPKNRLTQYMGPASAFYAVLAAIDQDVAGLLVQRPDLFTFADVADGVVDVRDFQTTGVVSYAKGAPFSQLRTGRLDIGGHRVRVDADMRQNCIDAIDGLVDRIE | not soluble |
| MGSDKIHHHHHHMSADIVFDRGSPSDIDEIKTFTSNTWKVGYYTDLYSKLADTGTMDDYVDKVIERWVNDGSVYVLRVSGRPVATIHMEKLPDGSVMLGGLRVHPEYRGSRLGMSIMQETIQFLRGKTERLRSAVYSWNEPSLRLVHRLGFHQVEEYPIYTFQGGSTAVPALKPVNERYAGRWRCFFIDWKYMCSDDPDIIHEEYSNNLIVDGSTFVYFDIYEGGIDLFVNDSDDASSFIEKYRSMNGRITFYVRKALANGLPYVPASSLTVWEYRY | not soluble |
| MGSDKIHHHHHHMSAKKNEIRSKLALLQLATELGSISKACGIMGYSRDSYYRFKKQYETAGERGLKNLSRRKPALKNRVSQAVEDQVIEIALDYPNYGQAKVAELLTARGCAISASGVRTIWVRHNLETKKNRLLALHSKLKQDNNLAPSDQVRIEKLYQLDSNDPIFECLYPGDICVQDTFDLGVISPLGQLYQHTFVDGYSQFAIAVIMPERDSASAAEFLEQTVLPWYATAQGLNINTILTDRGSEFFGKKSQQFSDVLSAHNINHIQMRAYNGPVVNGLAARFQDLAYHEFYEPFLKENKAGSLLDLNQQLANWLYDYNHSHAISGRYTLGKTAAEVLKLTKHLSEASSQCS | not soluble |
